T1: Endogenous murine CD206 on M2-polarized bone marrow-derived macrophages (mouse, UniProt Q61830 20-1456)
T1 construct: whole, on cells; also called endogenous CD206 in murine macrophages; CD206 of M2 BMDMs
T1 sequence (looked up): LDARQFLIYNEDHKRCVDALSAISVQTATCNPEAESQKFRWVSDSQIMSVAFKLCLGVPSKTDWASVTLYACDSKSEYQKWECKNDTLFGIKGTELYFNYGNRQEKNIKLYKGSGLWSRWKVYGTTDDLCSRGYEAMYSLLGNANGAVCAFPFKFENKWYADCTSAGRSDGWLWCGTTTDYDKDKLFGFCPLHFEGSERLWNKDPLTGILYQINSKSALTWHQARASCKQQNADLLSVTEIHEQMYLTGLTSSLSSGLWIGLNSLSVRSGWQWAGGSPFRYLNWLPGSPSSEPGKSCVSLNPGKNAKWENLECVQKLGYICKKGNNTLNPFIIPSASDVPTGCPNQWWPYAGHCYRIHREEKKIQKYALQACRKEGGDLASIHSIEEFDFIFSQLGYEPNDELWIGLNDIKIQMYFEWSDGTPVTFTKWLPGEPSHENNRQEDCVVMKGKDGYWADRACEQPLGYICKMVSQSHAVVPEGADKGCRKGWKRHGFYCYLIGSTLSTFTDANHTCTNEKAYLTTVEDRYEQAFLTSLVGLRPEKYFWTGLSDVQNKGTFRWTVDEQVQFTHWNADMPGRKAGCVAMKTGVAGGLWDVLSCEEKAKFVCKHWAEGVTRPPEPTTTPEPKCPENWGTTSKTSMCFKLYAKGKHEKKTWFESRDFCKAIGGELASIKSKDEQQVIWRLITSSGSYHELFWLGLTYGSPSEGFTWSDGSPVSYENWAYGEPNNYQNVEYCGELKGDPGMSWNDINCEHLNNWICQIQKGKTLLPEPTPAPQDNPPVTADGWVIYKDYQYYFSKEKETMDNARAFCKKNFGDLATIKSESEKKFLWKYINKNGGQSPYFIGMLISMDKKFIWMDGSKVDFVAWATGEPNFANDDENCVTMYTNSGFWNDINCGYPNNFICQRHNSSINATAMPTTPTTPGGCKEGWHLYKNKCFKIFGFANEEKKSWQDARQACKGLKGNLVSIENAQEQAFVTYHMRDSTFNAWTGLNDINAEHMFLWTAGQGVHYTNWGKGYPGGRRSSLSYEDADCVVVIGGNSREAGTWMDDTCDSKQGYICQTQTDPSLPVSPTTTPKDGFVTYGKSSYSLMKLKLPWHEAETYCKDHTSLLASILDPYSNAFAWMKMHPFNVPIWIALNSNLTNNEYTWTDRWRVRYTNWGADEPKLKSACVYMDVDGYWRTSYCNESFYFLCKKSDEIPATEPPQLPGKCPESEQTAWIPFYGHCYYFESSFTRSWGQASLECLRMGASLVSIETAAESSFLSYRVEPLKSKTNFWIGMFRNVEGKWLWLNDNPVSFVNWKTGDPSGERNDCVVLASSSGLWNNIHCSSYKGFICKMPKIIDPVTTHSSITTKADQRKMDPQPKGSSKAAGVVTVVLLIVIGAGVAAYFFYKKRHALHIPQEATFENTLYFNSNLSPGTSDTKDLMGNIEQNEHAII

B1: Recombinant human CD206 (MRC1/CD206) (receptor, UniProt P22897 19-1383, looked up)
chain: LLDTRQFLIYNEDHKRCVDAVSPSAVQTAACNQDAESQKFRWVSESQIMSVAFKLCLGVPSKTDWVAITLYACDSKSEFQKWECKNDTLLGIKGEDLFFNYGNRQEKNIMLYKGSGLWSRWKIYGTTDNLCSRGYEAMYTLLGNANGATCAFPFKFENKWYADCTSAGRSDGWLWCGTTTDYDTDKLFGYCPLKFEGSESLWNKDPLTSVSYQINSKSALTWHQARKSCQQQNAELLSITEIHEQTYLTGLTSSLTSGLWIGLNSLSFNSGWQWSDRSPFRYLNWLPGSPSAEPGKSCVSLNPGKNAKWENLECVQKLGYICKKGNTTLNSFVIPSESDVPTHCPSQWWPYAGHCYKIHRDEKKIQRDALTTCRKEGGDLTSIHTIEELDFIISQLGYEPNDELWIGLNDIKIQMYFEWSDGTPVTFTKWLRGEPSHENNRQEDCVVMKGKDGYWADRGCEWPLGYICKMKSRSQGPEIVEVEKGCRKGWKKHHFYCYMIGHTLSTFAEANQTCNNENAYLTTIEDRYEQAFLTSFVGLRPEKYFWTGLSDIQTKGTFQWTIEEEVRFTHWNSDMPGRKPGCVAMRTGIAGGLWDVLKCDEKAKFVCKHWAEGVTHPPKPTTTPEPKCPEDWGASSRTSLCFKLYAKGKHEKKTWFESRDFCRALGGDLASINNKEEQQTIWRLITASGSYHKLFWLGLTYGSPSEGFTWSDGSPVSYENWAYGEPNNYQNVEYCGELKGDPTMSWNDINCEHLNNWICQIQKGQTPKPEPTPAPQDNPPVTEDGWVIYKDYQYYFSKEKETMDNARAFCKRNFGDLVSIQSESEKKFLWKYVNRNDAQSAYFIGLLISLDKKFAWMDGSKVDYVSWATGEPNFANEDENCVTMYSNSGFWNDINCGYPNAFICQRHNSSINATTVMPTMPSVPSGCKEGWNFYSNKCFKIFGFMEEERKNWQEARKACIGFGGNLVSIQNEKEQAFLTYHMKDSTFSAWTGLNDVNSEHTFLWTDGRGVHYTNWGKGYPGGRRSSLSYEDADCVVIIGGASNEAGKWMDDTCDSKRGYICQTRSDPSLTNPPATIQTDGFVKYGKSSYSLMRQKFQWHEAETYCKLHNSLIASILDPYSNAFAWLQMETSNERVWIALNSNLTDNQYTWTDKWRVRYTNWAADEPKLKSACVYLDLDGYWKTAHCNESFYFLCKRSDEIPATEPPQLPGRCPESDHTAWIPFHGHCYYIESSYTRNWGQASLECLRMGSSLVSIESAAESSFLSYRVEPLKSKTNFWIGLFRNVEGTWLWINNSPVSFVNWNTGDPSGERNDCVALHASSGFWSNIHCSSYKGYICKRPKIIDAKPTHELLTTKADTRKMDPSK
notes: Bought protein; also called recombinant MRC1/CD206; rMRC1/CD206

Legend:
[1] = molecular target: B1; experiment: microscale thermophoresis, label-free, recombinant CD206
Method: Specifically, two-fold serial dilutions of the peptides were prepared in PBS and incubated with the same volume of 250 nM recombinant human and mouse CD206 in PBS. After a 5 min incubation at room temperature (RT), measurements were carried out in standard capillaries using a Monolith NT. Labelfree instrument (Nanotemper Technologies) with 40% LED excitation power, 40% IR-laser power, and laser on and off times of 30 s and 5 s, respectively. KD values were calculated by fitting the T-Jump signal of the thermograph using MOAffinity analysis software (Nanotemper Technologies).

[2] = molecular target: T1, Endogenous murine CD206 on M2-polarized …; experiment: cellular thermal shift assay (CETSA) on M2-polarized macrophages
Method: The target engagement of the peptides in macrophages was assessed using the cellular thermal shift assay (CETSA) following the Jafari et al. protocol with minor modifications. […] After treatment, cells were collected by centrifugation for 5 min at 300×g and re-suspended in 600 μL DMEM. […] Samples were centrifuged at 20,000×g for 20 min at 4° C., and the supernatant was subsequently analyzed by western blot using 12-230 kDa Peggy Sue separation module (ProteinSimple, Cat #, SM-S001) and Peggy Sue instrument (Protein Simple) with following settings: electrophoresis 250 volts for 45 min; blocking, 23 min; primary antibody, 30 min; secondary antibody, 30 min. Quantitative analysis of CD206 level was performed using anti-CD206 antibody at 1:70 concentration multiplexed with anti-SOD1 antibody at 1:300 dilution, as internal control for normalization, and Compass software (ProteinSimple, San Jose, Calif.).

[3] = molecular target: the molecule itself; experiment: small-angle X-ray scattering (SAXS), self-association
Method: SAXS data was collected at the 12ID-B beamline of the Advanced Photon Source (APS), Argonne National Laboratory, Lemont, Ill. […] Concentration series measurements for CD206 in buffer containing 50 mM Hepes, 100 mM NaCl, 1 mM DTT were carried out to extrapolate the data to infinite dilution for removing the scattering contribution due to interparticle interactions (concentration effect). Thirty 2D-image frames were recorded for sample solution and their matching buffer using a flow cell, with the exposure time of 0.75-1 sec to minimize radiation damage and to yield optimal signal-to-noise ratio. The 2D images were reduced to 1D scattering profiles and averaged using the Matlab software package at the beamlines.
The buffer background subtraction and intensity extrapolation to infinite dilution were carried out using MatLab script developed by 12-ID-B beamline. The radius of gyration (Rg) was generated from Guinier plot in the range of qRg<1.3. For comparison, Rg was also calculated in real and reciprocal spaces using program GNOM (https://www.embl-hamburg.de/biosaxs/manuals/gnom.html). The pair-distance distribution function P(r) and maximum dimension (Dmax) were also calculated using GNOM. […] Based on the silico models of CD206 monomer derived from iTASSER, the fit of dimer of CD206 to SAXS experimental data were calculated using the program CORAL.

Binder | Kd [1] [µM] | binding result [2] | binding result [3]
KARKAAKRAF (Designed as a control to test the impact of hydrophobicity on activity) [RP-426] | 85 | no binding (tested: 100 µM) | 
B1 |  |  | binds

— patent US20220062373A1 (published 2022)
